Experimental data as given in article PMC12654924.

Tests used:
[1] = target: hemagglutinin of the Asiatic toad influenza-like virus, ectodomain (Asiatic toad influenza-like virus); assay: cryo-EM structure
[2] = target: hemagglutinin of the spiny eel influenza-like virus, ectodomain (spiny eel influenza-like virus); assay: cryo-EM structure

Substance | stoichiometry N [1] | stoichiometry N [2]
hemagglutinin of the Asiatic toad influenza-like virus, ectodomain (domain or fragment) | 3 | 
hemagglutinin of the spiny eel influenza-like virus, ectodomain (domain or fragment) |  | 3
